Test results taken from patent CN101627111A.

Target: Fcγ受体(FcγR)
Assay: cell-based or functional assay

T cell activation in vivo (markers on splenocytes of dosed Balb/c mice, flow cytometry): 4 倍
Substance: 2C11 huG1, HEK (145-2C11 variable regions on human IgG1/kappa, expressed in HEK 293E cells) (from UniProt P01857 1-330) (antibody)
